{"source": "patent US20150291685A1", "about": "(AstraZeneca / MedImmune, published 2015)", "key": {"Neat-1": {"molecular_target": "T1, Neat-1 (Staphylococcus aureus)", "T1 construct": "domain of IsdH; also called subunit Neat-1 on IsdH; NEAT1 motif of IsdH", "experiment": "competition ELISA: haptoglobin (Hp) binding to Neat-1 of IsdH with rising antibody concentration"}, "Neat-2 subunit of IsdH [1]": {"molecular_target": "T2, Neat-2 subunit of IsdH (Staphylococcus aureus, UniProt Q2FXJ2 345-471)", "T2 construct": "domain: Neat-2; also called subunit Neat-2", "T2 sequence (looked up)": "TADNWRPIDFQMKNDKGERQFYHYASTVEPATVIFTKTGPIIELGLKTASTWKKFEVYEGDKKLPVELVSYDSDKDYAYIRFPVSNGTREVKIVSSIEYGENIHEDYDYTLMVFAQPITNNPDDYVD", "experiment": "competition ELISA: haptoglobin (Hp) binding to Neat-2 of IsdH with rising antibody concentration"}, "Neat-2 subunit of IsdH [2]": {"molecular_target": "T2, Neat-2 subunit of IsdH", "experiment": "hu_IgGFc capture assay, mean of three experiments"}, "[3]": {"molecular_target": "T3, S. aureus Iron regulated surface determinant H (IsdH) (Staphylococcus aureus, UniProt Q2FXJ2 41-864, limits assumed)", "T3 sequence (looked up)": "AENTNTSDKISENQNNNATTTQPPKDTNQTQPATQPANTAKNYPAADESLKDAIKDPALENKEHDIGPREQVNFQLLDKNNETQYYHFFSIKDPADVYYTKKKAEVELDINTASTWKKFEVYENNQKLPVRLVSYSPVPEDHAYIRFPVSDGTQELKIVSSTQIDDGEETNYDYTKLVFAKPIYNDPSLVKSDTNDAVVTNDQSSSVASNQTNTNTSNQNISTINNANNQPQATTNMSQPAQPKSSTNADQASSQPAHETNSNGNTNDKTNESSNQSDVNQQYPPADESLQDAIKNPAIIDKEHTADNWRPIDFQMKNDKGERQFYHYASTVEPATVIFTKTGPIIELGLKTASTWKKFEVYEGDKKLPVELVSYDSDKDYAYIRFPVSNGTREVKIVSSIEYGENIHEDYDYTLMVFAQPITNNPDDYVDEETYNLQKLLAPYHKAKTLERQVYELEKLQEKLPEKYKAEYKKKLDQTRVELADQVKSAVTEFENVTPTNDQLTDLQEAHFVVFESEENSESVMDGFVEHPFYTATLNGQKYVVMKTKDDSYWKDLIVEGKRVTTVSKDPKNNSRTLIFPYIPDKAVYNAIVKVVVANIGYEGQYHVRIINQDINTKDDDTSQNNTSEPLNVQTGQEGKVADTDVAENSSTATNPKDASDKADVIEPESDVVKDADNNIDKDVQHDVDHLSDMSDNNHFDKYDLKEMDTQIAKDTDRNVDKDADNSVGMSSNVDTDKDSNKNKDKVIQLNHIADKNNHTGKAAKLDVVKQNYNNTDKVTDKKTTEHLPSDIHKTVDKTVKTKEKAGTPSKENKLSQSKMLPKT", "experiment": "hu_IgGFc capture assay, mean of three experiments"}, "[4]": {"molecular_target": "T4, S. aureus clumping factor protein ClfA (Staphylococcus aureus, UniProt Q2G015 221-559, limits assumed)", "T4 sequence (looked up)": "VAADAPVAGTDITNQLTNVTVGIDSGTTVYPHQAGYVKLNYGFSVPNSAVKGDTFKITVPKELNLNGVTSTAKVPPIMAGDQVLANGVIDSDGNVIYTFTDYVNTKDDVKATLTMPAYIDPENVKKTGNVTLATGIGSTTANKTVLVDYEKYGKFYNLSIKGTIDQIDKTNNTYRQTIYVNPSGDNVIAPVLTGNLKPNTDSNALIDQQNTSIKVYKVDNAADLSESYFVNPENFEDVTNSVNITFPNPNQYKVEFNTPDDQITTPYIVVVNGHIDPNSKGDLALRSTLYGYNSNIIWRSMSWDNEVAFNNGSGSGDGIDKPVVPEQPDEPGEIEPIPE", "experiment": "inhibition of ClfA binding to immobilized fibrinogen; the curve reaches about 60-65 % inhibition [table]"}, "[5]": {"molecular_target": "T4, S. aureus clumping factor protein ClfA", "experiment": "inhibition of ClfA binding to immobilized fibrinogen; the curve reaches about 55-62 % inhibition [table]"}}, "data": [{"binder": "mAb 1C1 (antibody, V domains shown, also called antibody 1C1) VH: EVQLLESGGGLVQPGGSLRLSCAASGFTFSRYFMGWVRQAPGKGLEWVSSIYSSGGYTSYADSVKGRFTISRDNSKNTLYLQMNSLRAEDTAVYYCARRWRDGTFDYWGQGTLVTVSS VL: DIQMTQSPSSLSASIGDRVTISCRASQSVREYLNWYQQKPGKAPKLLIFAASSLQSGVPSRFSGSGSGTDFTLTISSLQPEDFATYYCQQSYSTRFTFGPGTKVDIK", "values": [{"measurement": "IC50 (read off the curve)", "setting": "Neat-1", "result": "~3", "unit": "µg/mL"}]}, {"binder": "mAb 2F4 (antibody, V domains shown, also called antibody 2F4; anti-IsdH mAb 2F4) VH: EVQLLESGGGLVQPGGSLRLSCAASGFTFSPYMMQWVRQAPGKGLEWVSSIWPSGGKTYYADSVKGRFTISRDNSKNTLYLQMNSLRAEDTAVYYCARVRRGGATDYWGQGTLVTVSS VL: DIQMTQSPATLSVSPGERATLSCRASQSVSSNLGWYQQKPGQAPRLLIYGASTRATGIPTRFSGSGSGTEFTLTISSLQSEDFATYYCQQYQNWPLLTFGGGTKVEIK", "values": [{"measurement": "IC50 (read off the curve)", "setting": "Neat-2 subunit of IsdH [1]", "result": "~1", "unit": "µg/mL"}, {"measurement": "Kd", "setting": "Neat-2 subunit of IsdH [2]", "result": 2.57, "unit": "nM"}, {"measurement": "Kd", "setting": "[3]", "result": 3.66, "unit": "nM"}]}, {"binder": "mAb 23D6 (antibody, V domains shown, also called anti-ClfA antibody 23D6) VH: QVQLVESGGGVVQPGRSLRLSCAASVFTFSSYGMHWVRQAPGKGLEWVALIWFDGSNEYYADSVKGRFTISRDNSKNTLYLQMNSLRAEDTAVYYCARDRGGGYYYYGMDVWGQGTTVTVSS VL: DIQMTQSPSSLSASVGDRVTITCRASQGIRNDLGWYQQKPGKAPKRLIYAASSLQSGVPSRFSGSGSGTEFTLTISSLQPEDFATYYCLQHNSYPYTFGQGTKLEIK", "values": [{"measurement": "IC50", "setting": "[4]", "result": 1.92, "unit": "µg/mL"}]}, {"binder": "anti-ClfA mAb 11H10 (antibody, V domains shown) VH: EVQLLESGGGLVQPGGSLRLSCAASGFTFSSFAMSWVRQAPGKGLEWVSAISGSGGNTYYADSVKGRFTISRDNSKNTLYLQMNSLRAEDTAVYYCAKIAFDIWGQGTMVTVSS VL: DIQMTQSPSSLSASVGDRVTITCRASQGIRNDLGWYQQKPGKAPKRLIYVASSLQSGVPSRFSGSGSGTEFTLTISSLQPEDFATYYCLQHNSYPFTFGPGTKVDIK", "values": [{"measurement": "IC50", "setting": "[5]", "result": 0.871, "unit": "µg/mL"}]}]}
